Source: PMC8214733

B1: coiled-coil domain-containing protein 103 (CCDC103), full-length coding sequence fused to a Nano-luciferase (NL)-Myc tag, Q8IW40 p.His154Pro (protein)
chain: MERNDIINFKALEKELQAALTADEKYKRENAAKLRAVEQRVASYEEFRGIVLASHLKPLERKDKMGGKRTVPWNCHTIQGRTFQDVATEISPEKAPLQPETSADFYRDWRRHLPSGPERYQALLQLGGPRLGCLFQTDVGFGLLGELLVALADPVGPADRAAVLGILCSLASTGRFTLNLSLLSRAERESCKGLFQKLQAMGNPRSVKEGLSWEEQGLEEQSGGLQEEERLLQELLELYQVD

Tests used:
Assay in all cases: BRET assay (LuTHy system)
[1] = target: sperm associated antigen 6 (SPAG6), full CDS fused to a proteinA-mCitrine tag (UniProt O75602); details: parent: est. 0.41; read off a plot
[2] = target: C-terminal portion of DYNC1H1 (1000 AA) fused to a proteinA-mCitrine tag (UniProt Q14204); details: parent: est. 0.52; read off a plot
[3] = target: C-terminal portion of DYNC1H1 (1000 AA) fused to a proteinA-mCitrine tag, Q14204; details: chain shown with the change;; parent: est. 0.52; read off a plot
[4] = target: T1, sperm associated antigen 6 (SPAG6), full CDS fused to a proteinA-mCitrine tag, O75602; details: chain shown with the change;; parent: est. 0.41; read off a plot
T1 chain: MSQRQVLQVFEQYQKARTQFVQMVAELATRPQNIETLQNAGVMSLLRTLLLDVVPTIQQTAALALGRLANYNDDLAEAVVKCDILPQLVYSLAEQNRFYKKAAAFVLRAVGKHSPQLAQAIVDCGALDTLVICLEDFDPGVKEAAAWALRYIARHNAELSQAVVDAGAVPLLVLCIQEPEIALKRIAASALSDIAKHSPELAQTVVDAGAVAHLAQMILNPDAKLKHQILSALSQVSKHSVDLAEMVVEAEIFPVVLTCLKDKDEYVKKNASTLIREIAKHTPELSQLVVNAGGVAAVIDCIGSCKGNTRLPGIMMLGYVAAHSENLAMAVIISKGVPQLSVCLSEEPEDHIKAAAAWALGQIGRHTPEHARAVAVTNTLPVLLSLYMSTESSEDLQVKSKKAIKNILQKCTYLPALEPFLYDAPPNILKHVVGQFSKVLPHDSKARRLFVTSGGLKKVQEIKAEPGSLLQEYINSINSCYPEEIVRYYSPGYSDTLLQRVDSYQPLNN

Sequence of C-terminal portion of DYNC1H1 (1000 AA) fused to a proteinA-mCitrine tag, Q14204 (Q14204 whole entry, the tested form may be a part): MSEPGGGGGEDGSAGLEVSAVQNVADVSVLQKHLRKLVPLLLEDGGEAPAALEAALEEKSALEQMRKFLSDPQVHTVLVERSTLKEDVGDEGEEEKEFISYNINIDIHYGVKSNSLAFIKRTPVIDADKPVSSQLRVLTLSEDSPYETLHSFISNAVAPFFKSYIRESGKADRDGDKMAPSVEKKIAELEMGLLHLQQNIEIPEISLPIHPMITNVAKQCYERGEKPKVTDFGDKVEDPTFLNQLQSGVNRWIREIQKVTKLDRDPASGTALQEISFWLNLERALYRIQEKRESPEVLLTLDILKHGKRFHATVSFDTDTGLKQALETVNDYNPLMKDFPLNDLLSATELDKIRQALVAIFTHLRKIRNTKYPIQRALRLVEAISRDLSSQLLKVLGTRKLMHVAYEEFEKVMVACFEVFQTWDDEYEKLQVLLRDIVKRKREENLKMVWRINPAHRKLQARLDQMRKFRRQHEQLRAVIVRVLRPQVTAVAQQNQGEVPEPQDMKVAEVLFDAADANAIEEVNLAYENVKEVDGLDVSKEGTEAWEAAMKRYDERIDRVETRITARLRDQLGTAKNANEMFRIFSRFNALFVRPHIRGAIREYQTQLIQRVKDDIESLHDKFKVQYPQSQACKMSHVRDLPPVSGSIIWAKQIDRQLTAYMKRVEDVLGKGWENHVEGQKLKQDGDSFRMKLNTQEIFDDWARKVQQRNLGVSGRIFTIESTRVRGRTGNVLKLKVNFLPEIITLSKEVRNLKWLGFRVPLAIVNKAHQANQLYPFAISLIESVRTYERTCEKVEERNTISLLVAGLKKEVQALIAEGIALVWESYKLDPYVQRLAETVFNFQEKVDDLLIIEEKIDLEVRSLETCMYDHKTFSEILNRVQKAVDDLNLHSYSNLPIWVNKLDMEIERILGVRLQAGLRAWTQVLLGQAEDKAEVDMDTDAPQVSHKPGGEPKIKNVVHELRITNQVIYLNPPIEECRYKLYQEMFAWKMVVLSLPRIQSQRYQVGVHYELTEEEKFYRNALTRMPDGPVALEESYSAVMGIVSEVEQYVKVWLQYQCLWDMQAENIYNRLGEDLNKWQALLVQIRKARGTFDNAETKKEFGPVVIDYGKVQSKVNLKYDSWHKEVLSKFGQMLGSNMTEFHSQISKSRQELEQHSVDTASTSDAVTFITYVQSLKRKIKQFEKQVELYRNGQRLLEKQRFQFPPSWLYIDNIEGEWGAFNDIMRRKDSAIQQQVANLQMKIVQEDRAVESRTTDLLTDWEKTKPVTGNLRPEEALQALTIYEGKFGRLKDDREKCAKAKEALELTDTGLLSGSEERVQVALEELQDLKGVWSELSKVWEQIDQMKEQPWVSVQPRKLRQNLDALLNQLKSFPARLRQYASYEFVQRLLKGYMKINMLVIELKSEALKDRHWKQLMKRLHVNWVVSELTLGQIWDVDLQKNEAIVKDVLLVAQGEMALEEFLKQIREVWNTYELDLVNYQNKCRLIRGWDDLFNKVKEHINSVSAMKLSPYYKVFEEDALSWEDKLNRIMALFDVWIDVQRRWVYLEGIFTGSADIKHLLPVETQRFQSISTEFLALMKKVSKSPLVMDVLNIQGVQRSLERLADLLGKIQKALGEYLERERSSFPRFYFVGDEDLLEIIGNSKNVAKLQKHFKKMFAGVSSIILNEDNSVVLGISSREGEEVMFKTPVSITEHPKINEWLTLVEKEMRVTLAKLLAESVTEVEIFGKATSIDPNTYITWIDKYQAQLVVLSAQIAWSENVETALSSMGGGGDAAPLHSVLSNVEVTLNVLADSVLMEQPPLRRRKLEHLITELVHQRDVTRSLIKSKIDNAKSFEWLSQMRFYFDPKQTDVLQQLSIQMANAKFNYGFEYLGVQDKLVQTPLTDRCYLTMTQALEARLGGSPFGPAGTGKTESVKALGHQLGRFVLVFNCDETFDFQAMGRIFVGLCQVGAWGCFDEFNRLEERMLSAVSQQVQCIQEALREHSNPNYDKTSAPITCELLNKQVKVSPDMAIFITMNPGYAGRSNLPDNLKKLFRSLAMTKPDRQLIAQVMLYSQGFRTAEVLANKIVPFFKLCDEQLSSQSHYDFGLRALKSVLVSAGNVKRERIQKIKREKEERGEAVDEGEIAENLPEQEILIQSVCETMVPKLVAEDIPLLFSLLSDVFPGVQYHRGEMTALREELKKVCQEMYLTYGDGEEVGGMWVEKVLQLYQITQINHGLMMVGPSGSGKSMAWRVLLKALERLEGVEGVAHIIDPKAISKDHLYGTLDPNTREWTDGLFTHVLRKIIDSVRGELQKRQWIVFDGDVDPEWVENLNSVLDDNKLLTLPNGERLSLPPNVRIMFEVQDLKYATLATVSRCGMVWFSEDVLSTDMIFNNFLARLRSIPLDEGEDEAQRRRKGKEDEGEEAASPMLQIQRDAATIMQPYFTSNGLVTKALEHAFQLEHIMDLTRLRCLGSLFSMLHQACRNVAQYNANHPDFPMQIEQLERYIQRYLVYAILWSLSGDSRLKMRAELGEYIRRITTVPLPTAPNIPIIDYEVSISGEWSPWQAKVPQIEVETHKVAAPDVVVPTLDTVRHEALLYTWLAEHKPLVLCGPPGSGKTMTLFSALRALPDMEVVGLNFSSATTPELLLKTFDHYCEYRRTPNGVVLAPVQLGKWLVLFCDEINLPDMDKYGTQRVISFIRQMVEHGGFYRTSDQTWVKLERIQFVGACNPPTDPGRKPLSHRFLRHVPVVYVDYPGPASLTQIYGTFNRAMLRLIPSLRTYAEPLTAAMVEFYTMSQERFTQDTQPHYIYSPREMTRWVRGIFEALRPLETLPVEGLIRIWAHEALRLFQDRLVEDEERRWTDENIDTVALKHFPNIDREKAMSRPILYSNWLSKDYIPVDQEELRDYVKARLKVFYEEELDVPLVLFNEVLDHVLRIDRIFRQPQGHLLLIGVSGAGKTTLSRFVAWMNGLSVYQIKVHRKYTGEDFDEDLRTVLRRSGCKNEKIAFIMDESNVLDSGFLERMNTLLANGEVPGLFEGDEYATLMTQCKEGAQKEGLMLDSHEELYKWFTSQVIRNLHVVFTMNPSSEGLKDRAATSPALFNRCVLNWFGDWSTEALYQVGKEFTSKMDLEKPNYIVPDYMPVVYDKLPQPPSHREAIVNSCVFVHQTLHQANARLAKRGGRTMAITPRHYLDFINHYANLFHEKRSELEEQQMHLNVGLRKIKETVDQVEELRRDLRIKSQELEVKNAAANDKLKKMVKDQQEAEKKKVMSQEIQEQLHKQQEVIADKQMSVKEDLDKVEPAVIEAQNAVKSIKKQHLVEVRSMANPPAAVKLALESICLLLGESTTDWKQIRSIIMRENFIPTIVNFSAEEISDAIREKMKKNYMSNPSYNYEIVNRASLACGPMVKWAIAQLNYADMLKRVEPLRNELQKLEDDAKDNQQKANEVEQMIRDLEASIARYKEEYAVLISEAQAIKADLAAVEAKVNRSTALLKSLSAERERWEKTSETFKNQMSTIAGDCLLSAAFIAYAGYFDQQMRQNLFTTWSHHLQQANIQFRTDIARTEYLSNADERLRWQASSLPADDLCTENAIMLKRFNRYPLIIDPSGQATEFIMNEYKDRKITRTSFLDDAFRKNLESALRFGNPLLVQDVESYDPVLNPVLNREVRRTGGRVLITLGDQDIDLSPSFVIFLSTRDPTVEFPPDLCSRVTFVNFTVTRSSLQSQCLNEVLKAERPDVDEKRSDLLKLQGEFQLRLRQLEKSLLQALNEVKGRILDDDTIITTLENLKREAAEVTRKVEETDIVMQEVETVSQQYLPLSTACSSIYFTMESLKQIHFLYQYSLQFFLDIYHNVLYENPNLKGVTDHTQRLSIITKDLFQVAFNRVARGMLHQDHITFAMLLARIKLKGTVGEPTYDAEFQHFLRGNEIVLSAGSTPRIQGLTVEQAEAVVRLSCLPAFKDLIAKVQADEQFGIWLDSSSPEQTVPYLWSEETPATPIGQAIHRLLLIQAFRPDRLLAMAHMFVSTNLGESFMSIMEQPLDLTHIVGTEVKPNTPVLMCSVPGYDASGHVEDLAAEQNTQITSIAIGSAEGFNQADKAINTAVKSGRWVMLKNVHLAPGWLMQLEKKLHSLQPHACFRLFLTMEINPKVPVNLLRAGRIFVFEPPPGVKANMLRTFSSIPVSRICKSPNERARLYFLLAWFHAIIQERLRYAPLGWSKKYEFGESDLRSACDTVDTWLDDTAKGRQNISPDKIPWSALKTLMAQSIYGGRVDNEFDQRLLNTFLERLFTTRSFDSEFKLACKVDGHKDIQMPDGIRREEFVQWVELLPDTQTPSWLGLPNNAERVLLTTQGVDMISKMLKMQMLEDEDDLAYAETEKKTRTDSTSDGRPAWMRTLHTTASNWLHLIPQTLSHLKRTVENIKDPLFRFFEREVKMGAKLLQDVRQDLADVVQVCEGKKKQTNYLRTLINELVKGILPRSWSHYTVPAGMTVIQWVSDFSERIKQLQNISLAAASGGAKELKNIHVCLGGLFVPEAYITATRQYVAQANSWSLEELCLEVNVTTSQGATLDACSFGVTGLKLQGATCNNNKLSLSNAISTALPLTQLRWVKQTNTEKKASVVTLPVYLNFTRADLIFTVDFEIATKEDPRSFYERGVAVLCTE

Row | response [1] | response [2] | response [3] | response [4] | Molecule
1 | 0.33 | 0.55 |  |  | coiled-coil domain-containing protein 103 (CCDC103), full-length coding sequence fused to a Nano-luciferase (NL)-Myc tag (from UniProt Q8IW40) p.Ala11Pro
2 |  |  | 0.38 | 0.22 | B1
